Here are results for two molecules from paper PMC8266045, “MT1-MMP-dependent ECM processing regulates laminB1 stability and mediates replication fork restart” (PLoS ONE, 2021).

B1: laminB1 (natural protein, human (endogenous in MDA-MB-231), UniProt P20700 1-586, looked up)
chain: MATATPVPPRMGSRAGGPTTPLSPTRLSRLQEKEELRELNDRLAVYIDKVRSLETENSALQLQVTEREEVRGRELTGLKALYETELADARRALDDTARERAKLQIELGKCKAEHDQLLLNYAKKESDLNGAQIKLREYEAALNSKDAALATALGDKKSLEGDLEDLKDQIAQLEASLAAAKKQLADETLLKVDLENRCQSLTEDLEFRKSMYEEEINETRRKHETRLVEVDSGRQIEYEYKLAQALHEMREQHDAQVRLYKEELEQTYHAKLENARLSSEMNTSTVNSAREELMESRMRIESLSSQLSNLQKESRACLERIQELEDLLAKEKDNSRRMLTDKEREMAEIRDQMQQQLNDYEQLLDVKLALDMEISAYRKLLEGEEERLKLSPSPSSRVTVSRASSSRSVRTTRGKRKRVDVEESEASSSVSISHSASATGNVCIEEIDVDGKFIRLKNTSEQDQPMGGWEMIRKIGDTSVSYKYTSRYVLKAGQTVTIWAANAGVTASPPTDLIWKNQNSWGTGEDVKVILKNSQGEEVAQRSTVFKTTIPEEEEEEEEAAGVVVEEELFHQQGTPRASNRSCAIM
notes: Lamin B1, nuclear envelope intermediate filament protein, endogenous in human MDA-MB-231 breast cancer cells; The introduction says that laminB1 is tethered to the membrane via a farnesyl group; nothing is said of the modification state in the co-IP; also called LMNB1; source: endogenous, MDA-MB-231 lysate (RIPA buffer)
B2: Focal Adhesion Kinase (natural protein, human (endogenous in MDA-MB-231), UniProt Q05397 1-1052, looked up)
chain: MAAAYLDPNLNHTPNSSTKTHLGTGMERSPGAMERVLKVFHYFESNSEPTTWASIIRHGDATDVRGIIQKIVDSHKVKHVACYGFRLSHLRSEEVHWLHVDMGVSSVREKYELAHPPEEWKYELRIRYLPKGFLNQFTEDKPTLNFFYQQVKSDYMLEIADQVDQEIALKLGCLEIRRSYWEMRGNALEKKSNYEVLEKDVGLKRFFPKSLLDSVKAKTLRKLIQQTFRQFANLNREESILKFFEILSPVYRFDKECFKCALGSSWIISVELAIGPEEGISYLTDKGCNPTHLADFTQVQTIQYSNSEDKDRKGMLQLKIAGAPEPLTVTAPSLTIAENMADLIDGYCRLVNGTSQSFIIRPQKEGERALPSIPKLANSEKQGMRTHAVSVSETDDYAEIIDEEDTYTMPSTRDYEIQRERIELGRCIGEGQFGDVHQGIYMSPENPALAVAIKTCKNCTSDSVREKFLQEALTMRQFDHPHIVKLIGVITENPVWIIMELCTLGELRSFLQVRKYSLDLASLILYAYQLSTALAYLESKRFVHRDIAARNVLVSSNDCVKLGDFGLSRYMEDSTYYKASKGKLPIKWMAPESINFRRFTSASDVWMFGVCMWEILMHGVKPFQGVKNNDVIGRIENGERLPMPPNCPPTLYSLMTKCWAYDPSRRPRFTELKAQLSTILEEEKAQQEERMRMESRRQATVSWDSGGSDEAPPKPSRPGYPSPRSSEGFYPSPQHMVQTNHYQVSGYPGSHGITAMAGSIYPGQASLLDQTDSWNHRPQEIAMWQPNVEDSTVLDLRGIGQVLPTHLMEERLIRQQQEMEEDQRWLEKEERFLKPDVRLSRGSIDREDGSLQGPIGNQHIYQPVGKPDPAAPPKKPPRPGAPGHLGSLASLSSPADSYNEGVKLQPQEISPPPTANLDRSNDKVYENVTGLVKAVIEMSSKIQPAPPEEYVPMVKEVGLALRTLLATVDETIPLLPASTHREIEMAQKLLNSDLGELINKMKLAQQYVMTSLQQEYKKQMLTAAHALAVDAKNLLDVIDQARLKMLGQTRPH
notes: Focal adhesion kinase (FAK), endogenous in human MDA-MB-231 breast cancer cells; Endogenous protein; also called FAK; source: endogenous, MDA-MB-231 lysate (RIPA buffer)

Assay [1] concerns the target B2. The experiment in a line: co-IP; MDA-MB-231 lysate in RIPA buffer (50mM Tris HCl pH 8, 150 mM NaCl, 1% NP-40, 0.5% sodium deoxycholate); immunoprecipitated overnight at 4°C with FAK antibody; immunoblot with anti FAK and anti laminB1; IgG as negative control. The following applies: partners not purified. (Immunoblotting shows a protein as a band on a membrane.)
Assay [2] addresses B1. The experiment in a line: co-IP; MDA-MB-231 lysate in RIPA buffer (50mM Tris HCl pH 8, 150 mM NaCl, 1% NP-40, 0.5% sodium deoxycholate); immunoprecipitated overnight at 4°C with laminB1 antibody; immunoblot with anti FAK and anti laminB1; IgG as negative control. The following applies: partners not purified.

Turning to B1, the enrichment versus input in assay [1] was found to be 5.5 ± 0.4 fold versus input.

Regarding B2, the enrichment versus input in assay [2] was 6.4 ± 1.05 fold versus input.
